{"source": "the supplement of paper PMC9112550", "about": "“Optimization of the antimicrobial peptide Bac7 by deep mutational scanning” (BMC Biology, 2022);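 note: peptides expressed intracellularly from a pBAD plasmid library in pooled LB shake-flask culture, induced with 0.3% L-arabinose, DNA abundance read by NGS, three biological replicates, DESeq2 with apeglm shrinkage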"}
{"tested_on": "Escherichia coli TOP10", "assay": "shrunken log2 fold change of peptide-encoding DNA abundance (4.5 h post-induction vs induction); higher = less antimicrobial activity (less host growth inhibition)", "conditions": "time post-induction: 4.5 h; library: site-saturation at positions 5, 18, 19, 20"}
{"sequence": "RRIRYRPPRLPRPRPRPTPDPRP", "shrunken log2 fold change": -0.145}
{"sequence": "RRIRHRPPRLPRPRPRPQCKPRP", "shrunken log2 fold change": -0.161}
{"sequence": "RRIRWRPPRLPRPRPRPWSSPRP", "shrunken log2 fold change": -0.0663}
{"sequence": "RRIRQRPPRLPRPRPRPHFQPRP", "shrunken log2 fold change": -0.108}
{"sequence": "RRIRIRPPRLPRPRPRPFTTPRP", "shrunken log2 fold change": -0.509}
{"sequence": "RRIRGRPPRLPRPRPRPCNEPRP", "shrunken log2 fold change": 0.0278}
{"sequence": "RRIRQRPPRLPRPRPRPSSSPRP", "shrunken log2 fold change": -1.39}
{"sequence": "RRIRLRPPRLPRPRPRPIRTPRP", "shrunken log2 fold change": 0.0758}
{"sequence": "RRIRMRPPRLPRPRPRPPWVPRP", "shrunken log2 fold change": 0.241}
{"sequence": "RRIRWRPPRLPRPRPRPITFPRP", "shrunken log2 fold change": -0.232}
{"sequence": "RRIRHRPPRLPRPRPRPDSQPRP", "shrunken log2 fold change": -0.194}
{"sequence": "RRIRCRPPRLPRPRPRPIECPRP", "shrunken log2 fold change": -0.00475}
{"sequence": "RRIRIRPPRLPRPRPRPVDWPRP", "shrunken log2 fold change": -0.0226}
{"sequence": "RRIRGRPPRLPRPRPRPGWHPRP", "shrunken log2 fold change": 0.277}
{"sequence": "RRIRRRPPRLPRPRPRPNTCPRP", "shrunken log2 fold change": 0.0105}
{"sequence": "RRIRQRPPRLPRPRPRPITQPRP", "shrunken log2 fold change": -0.132}
{"sequence": "RRIRIRPPRLPRPRPRPEWAPRP", "shrunken log2 fold change": 0.0716}
{"sequence": "RRIRWRPPRLPRPRPRPHRAPRP", "shrunken log2 fold change": -0.0058}
{"sequence": "RRIRGRPPRLPRPRPRPPKWPRP", "shrunken log2 fold change": 0.469}
{"sequence": "RRIRTRPPRLPRPRPRPCLGPRP", "shrunken log2 fold change": -0.534}
{"sequence": "RRIRYRPPRLPRPRPRPCMIPRP", "shrunken log2 fold change": -0.731}
{"sequence": "RRIRVRPPRLPRPRPRPNDGPRP", "shrunken log2 fold change": -0.133}
{"sequence": "RRIRRRPPRLPRPRPRPQAPPRP", "shrunken log2 fold change": 0.236}
{"sequence": "RRIRERPPRLPRPRPRPLFWPRP", "shrunken log2 fold change": 0.219}
{"sequence": "RRIRVRPPRLPRPRPRPNFLPRP", "shrunken log2 fold change": -0.0134}
{"sequence": "RRIRHRPPRLPRPRPRPNTSPRP", "shrunken log2 fold change": -0.534}
{"sequence": "RRIRARPPRLPRPRPRPLMAPRP", "shrunken log2 fold change": 0.554}
{"sequence": "RRIRTRPPRLPRPRPRPRSFPRP", "shrunken log2 fold change": -0.0927}
{"sequence": "RRIRMRPPRLPRPRPRPNNHPRP", "shrunken log2 fold change": -0.178}
{"sequence": "RRIRHRPPRLPRPRPRPVEWPRP", "shrunken log2 fold change": 0.123}
{"sequence": "RRIRLRPPRLPRPRPRPKWYPRP", "shrunken log2 fold change": -0.299}
{"sequence": "RRIRDRPPRLPRPRPRPPHNPRP", "shrunken log2 fold change": -0.103}
{"sequence": "RRIRVRPPRLPRPRPRPYEYPRP", "shrunken log2 fold change": -0.137}
{"sequence": "RRIRKRPPRLPRPRPRPLLIPRP", "shrunken log2 fold change": -0.11}
{"sequence": "RRIRHRPPRLPRPRPRPSTFPRP", "shrunken log2 fold change": -0.0458}
{"sequence": "RRIRKRPPRLPRPRPRPDSSPRP", "shrunken log2 fold change": 0.0149}
{"sequence": "RRIRQRPPRLPRPRPRPVYRPRP", "shrunken log2 fold change": -0.308}
{"sequence": "RRIRIRPPRLPRPRPRPRCSPRP", "shrunken log2 fold change": -0.137}
{"sequence": "RRIRARPPRLPRPRPRPWEVPRP", "shrunken log2 fold change": 0.205}
{"sequence": "RRIRRRPPRLPRPRPRPEITPRP", "shrunken log2 fold change": 0.0455}
{"sequence": "RRIRWRPPRLPRPRPRPWCQPRP", "shrunken log2 fold change": 0.121}
{"sequence": "RRIRKRPPRLPRPRPRPNKQPRP", "shrunken log2 fold change": -0.0316}
{"sequence": "RRIRVRPPRLPRPRPRPSTSPRP", "shrunken log2 fold change": -0.0898}
{"sequence": "RRIRSRPPRLPRPRPRPVAYPRP", "shrunken log2 fold change": -0.0936}
{"sequence": "RRIRTRPPRLPRPRPRPMPFPRP", "shrunken log2 fold change": -0.00604}
{"sequence": "RRIRLRPPRLPRPRPRPCHPPRP", "shrunken log2 fold change": 0.159}
{"sequence": "RRIRQRPPRLPRPRPRPICKPRP", "shrunken log2 fold change": -0.00411}
{"sequence": "RRIRGRPPRLPRPRPRPGYFPRP", "shrunken log2 fold change": 3.3}
{"sequence": "RRIRWRPPRLPRPRPRPEGMPRP", "shrunken log2 fold change": 0.999}
{"sequence": "RRIRTRPPRLPRPRPRPAICPRP", "shrunken log2 fold change": -0.552}
{"sequence": "RRIRFRPPRLPRPRPRPPQCPRP", "shrunken log2 fold change": 0.237}
{"sequence": "RRIRQRPPRLPRPRPRPFLVPRP", "shrunken log2 fold change": 0.000414}
{"sequence": "RRIRRRPPRLPRPRPRPGSLPRP", "shrunken log2 fold change": -0.00238}
{"sequence": "RRIRMRPPRLPRPRPRPEYGPRP", "shrunken log2 fold change": 0.132}
{"sequence": "RRIRKRPPRLPRPRPRPRKTPRP", "shrunken log2 fold change": 0.303}
{"sequence": "RRIRMRPPRLPRPRPRPHAWPRP", "shrunken log2 fold change": 0.365}
{"sequence": "RRIRIRPPRLPRPRPRPKESPRP", "shrunken log2 fold change": -0.258}
{"sequence": "RRIRNRPPRLPRPRPRPSVMPRP", "shrunken log2 fold change": -0.281}
{"sequence": "RRIRDRPPRLPRPRPRPYQTPRP", "shrunken log2 fold change": -0.0929}
{"sequence": "RRIRNRPPRLPRPRPRPYSAPRP", "shrunken log2 fold change": -1.37}
{"sequence": "RRIRDRPPRLPRPRPRPHHKPRP", "shrunken log2 fold change": -0.397}
{"sequence": "RRIRYRPPRLPRPRPRPHMHPRP", "shrunken log2 fold change": -0.988}
{"sequence": "RRIRQRPPRLPRPRPRPIFMPRP", "shrunken log2 fold change": -0.00126}
{"sequence": "RRIRDRPPRLPRPRPRPEDFPRP", "shrunken log2 fold change": 0.427}
{"sequence": "RRIRNRPPRLPRPRPRPRYDPRP", "shrunken log2 fold change": -0.494}
{"sequence": "RRIRNRPPRLPRPRPRPHDAPRP", "shrunken log2 fold change": -0.116}
{"sequence": "RRIRFRPPRLPRPRPRPCPWPRP", "shrunken log2 fold change": -0.0658}
{"sequence": "RRIRERPPRLPRPRPRPIHIPRP", "shrunken log2 fold change": 0.0108}
{"sequence": "RRIRKRPPRLPRPRPRPWHTPRP", "shrunken log2 fold change": 0.0104}
{"sequence": "RRIRPRPPRLPRPRPRPAWRPRP", "shrunken log2 fold change": 0.645}
{"sequence": "RRIRQRPPRLPRPRPRPCQIPRP", "shrunken log2 fold change": -0.298}
{"sequence": "RRIRKRPPRLPRPRPRPIRNPRP", "shrunken log2 fold change": -0.34}
{"sequence": "RRIRDRPPRLPRPRPRPIPGPRP", "shrunken log2 fold change": 0.171}
{"sequence": "RRIRIRPPRLPRPRPRPLWCPRP", "shrunken log2 fold change": -0.067}
{"sequence": "RRIRIRPPRLPRPRPRPHPYPRP", "shrunken log2 fold change": -0.0313}
